Data set [1] relates to HeLa Kyoto. In words: solubility change mitosis vs G1/S (difference of NP-40 vs SDS log2 ratios) (log2 ratio difference); higher = more soluble in mitosis.
Data set [2] has as its system HeLa Kyoto. The data set can be described thus: thermal stability score vs G1/S (z-score of summed log2 fold changes over temperatures); higher = more thermally stable than in G1/S.
For data set [3], the system named is HeLa Kyoto. The data set can be described thus: solubility in G1/S (NP-40 vs SDS abundance) (log2 ratio); higher = more soluble. The conditions noted are these: cell cycle stage: G1/S.
In data set [4] the test system is HeLa Kyoto. The data set can be described thus: melting temperature (median over replicates), in situ; higher = more thermally stable.
The mark [5] stands for this setting: cell cycle stage: early G1 (4.5 h after nocodazole release).
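Throughout, for melting temperature (median over replicates), in situ: HeLa Kyoto cells synchronized by double thymidine or nocodazole block, proteins quantified by TMT10plex mass spectrometry, three independent biological replicates.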
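Throughout, for solubility change mitosis vs G1/S (difference of NP-40 vs SDS log2 ratios): synchronized HeLa Kyoto cells (double thymidine block for G1/S, nocodazole release for mitosis), protein amounts in NP-40 versus SDS lysates quantified by mass spectrometry, three biological replicates.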
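Throughout, for solubility in G1/S (NP-40 vs SDS abundance): HeLa Kyoto cells arrested at G1/S by double thymidine block, proteins quantified by TMT10plex mass spectrometry in mild NP-40 versus SDS extracts, three biological replicates.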
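Throughout, for thermal stability score vs G1/S (z-score of summed log2 fold changes over temperatures): synchronized HeLa Kyoto cells, proteins quantified by TMT10plex mass spectrometry, three biological replicates, mitosis taken 0.5 h after nocodazole release, G1/S directly after double thymidine block.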

On to “MVDYSVWDHIEVSDDEDETHPNIDTASLFRWRHQARVERMEQFQKEKEELDRGCRECKRKVAECQRKLKELEVAEGGKAELERLQAEAQQLRKEERSWEQKLEEMRKKEKSMPWNVDTLSKDGFSKSMVNTKPEKTEEDSEEVREQKHKTFVEKYEKQIKHFGMLRRWDDSQKYLSDNVHLVCEETANYLVIWCIDLEVEEKCALMEQVAHQTIVMQFILELAKSLKVDPRACFRQFFTKIKTADRQYMEGFNDELEAFKERVRGRAKLRIEKAMKEYEEEERKKRLGPGGLDPVEVYESLPEELQKCFDVKDVQMLQDAISKMDPTDAKYHMQRCIDSGLWVPNSKASEAKEGEEAGPGDPLLEAVPKTGDEKDVSV [CDC37]”, for which the “solubility change mitosis (log2)” value with HeLa Kyoto [1] was determined as 0.0658. Also, the results for the thermal stability score in the data set with HeLa Kyoto [2] (setting [5]) and with HeLa Kyoto [2] (cell cycle stage: mitosis) were 0.438 and -0.732, respectively. The “solubility in G1/S (log2)” value in the data set on HeLa Kyoto [3] worked out at 0.24. Moreover, the melting temperature in the data set with HeLa Kyoto [4] (cell cycle stage: G1/S) came to 52.1 °C; with HeLa Kyoto [4] (cell cycle stage: mitosis), 52.6 °C.

“MVEADRPGKLFIGGLNTETNEKALEAVFGKYGRIVEVLLMKDRETNKSRGFAFVTFESPADAKDAARDMNGKSLDGKAIKVEQATKPSFESGRRGPPPPPRSRGPPRGLRGGRGGSGGTRGPPSRGGHMDDGGYSMNFNMSSSRGPLPVKRGPPPRSGGPPPKRSAPSGPVRSSSGMGGRAPVSRGRDSYGGPPRREPLPSRRDVYLSPRDDGYSTKDSYSSRDYPSSRDTRDYAPPPRDYTYRDYGHSSSRDDYPSRGYSDRDGYGRDRDYSDHPSGGSYRDSYESYGNSRSAPPTRGPPPSYGGSSRYDDYSSSRDGYGGSRDSYSSSRSDLYSSGRDRVGRQERGLPPSMERGYPPPRDSYSSSSRGAPRGGGRGGSRSDRGGGRSRY [RBMX]”: the “solubility change mitosis (log2)” value with HeLa Kyoto [1] is 0.777. The values for the thermal stability score in the data set with HeLa Kyoto [2] (setting [5]) and in the data set with HeLa Kyoto [2] (cell cycle stage: mitosis) were -0.25 and 7.17, respectively. The “solubility in G1/S (log2)” value in the data set on HeLa Kyoto [3] is -0.567. Besides, the values for the melting temperature with HeLa Kyoto [4] (cell cycle stage: G1/S) and with HeLa Kyoto [4] (cell cycle stage: mitosis) were 47.5 °C and 50.5 °C, respectively.

For “MVELMFPLLLLLLPFLLYMAAPQIRKMLSSGVCTSTVQLPGKVVVVTGANTGIGKETAKELAQRGARVYLACRDVEKGELVAKEIQTTTGNQQVLVRKLDLSDTKSIRAFAKGFLAEEKHLHVLINNAGVMMCPYSKTADGFEMHIGVNHLGHFLLTHLLLEKLKESAPSRIVNVSSLAHHLGRIHFHNLQGEKFYNAGLAYCHSKLANILFTQELARRLKGSGVTTYSVHPGTVQSELVRHSSFMRWMWWLFSFFIKTPQQGAQTSLHCALTEGLEILSGNHFSDCHVAWVSAQARNETIARRLWDVSCDLLGLPID [RDH11]”, in the data set with HeLa Kyoto [1], the “solubility change mitosis (log2)” value is -0.137. Also, the thermal stability score in the data set with HeLa Kyoto [2] (setting [5]) was -0.184; in the data set on HeLa Kyoto [2] (cell cycle stage: mitosis), 0.26. For the same sequence, the “solubility in G1/S (log2)” value with HeLa Kyoto [3] was -0.0695. Besides, the melting temperature in the data set on HeLa Kyoto [4] (cell cycle stage: G1/S) amounted to 49.5 °C; in the data set with HeLa Kyoto [4] (cell cycle stage: mitosis) it was 50.2 °C.

Turning to “MVFLPLKWSLATMSFLLSSLLALLTVSTPSWCQSTEASPKRSDGTPFPWNKIRLPEYVIPVHYDLLIHANLTTLTFWGTTKVEITASQPTSTIILHSHHLQISRATLRKGAGERLSEEPLQVLEHPRQEQIALLAPEPLLVGLPYTVVIHYAGNLSETFHGFYKSTYRTKEGELRILASTQFEPTAARMAFPCFDEPAFKASFSIKIRREPRHLAISNMPLVKSVTVAEGLIEDHFDVTVKMSTYLVAFIISDFESVSKITKSGVKVSVYAVPDKINQADYALDAAVTLLEFYEDYFSIPYPLPKQDLAAIPDFQSGAMENWGLTTYRESALLFDAEKSSASSKLGITMTVAHELAHQWFGNLVTMEWWNDLWLNEGFAKFMEFVSVSVTHPELKVGDYFFGKCFDAMEVDALNSSHPVSTPVENPAQIREMFDDVSYDKGACILNMLREYLSADAFKSGIVQYLQKHSYKNTKNEDLWDSMASICPTDGVKGMDGFCSRSQHSSSSSHWHQEGVDVKTMMNTWTLQKGFPLITITVRGRNVHMKQEHYMKGSDGAPDTGYLWHVPLTFITSKSDMVHRFLLKTKTDVLILPEEVEWIKFNVGMNGYYIVHYEDDGWDSLTGLLKGTHTAVSSNDRASLINNAFQLVSIGKLSIEKALDLSLYLKHETEIMPVFQGLNELIPMYKLMEKRDMNEVETQFKAFLIRLLRDLIDKQTWTDEGSVSERMLRSQLLLLACVHNYQPCVQRAEGYFRKWKESNGNLSLPVDVTLAVFAVGAQSTEGWDFLYSKYQFSLSSTEKSQIEFALCRTQNKEKLQWLLDESFKGDKIKTQEFPQILTLIGRNPVGYPLAWQFLRKNWNKLVQKFELGSSSIAHMVMGTTNQFSTRTRLEEVKGFFSSLKENGSQLRCVQQTIETIEENIGWMDKNFDKIRVWLQSEKLERM [ERAP1]”, the “solubility change mitosis (log2)” value in the data set on HeLa Kyoto [1] was -0.172. Moreover, the thermal stability score turned out to be 3.59 in the data set on HeLa Kyoto [2] (setting [5]) and 5.54 in the data set on HeLa Kyoto [2] (cell cycle stage: mitosis). Further, the “solubility in G1/S (log2)” value in the data set on HeLa Kyoto [3] is 0.0916. Further, the melting temperature came out at 53.9 °C with HeLa Kyoto [4] (cell cycle stage: G1/S) and 54.4 °C in the data set on HeLa Kyoto [4] (cell cycle stage: mitosis).

Take “MVFPAKRFCLVPSMEGVRWAFSCGTWLPSRAEWLLAVRSIQPEEKERIGQFVFARDAKAAMAGRLMIRKLVAEKLNIPWNHIRLQRTAKGKPVLAKDSSNPYPNFNFNISHQGDYAVLAAEPELQVGIDIMKTSFPGRGSIPEFFHIMKRKFTNKEWETIRSFKDEWTQLDMFYRNWALKESFIKAIGVGLGFELQRLEFDLSPLNLDIGQVYKETRLFLDGEEEKEWAFEESKIDEHHFVAVALRKPDGSRHQDVPSQDDSKPTQRQFTILNFNDLMSSAVPMTPEDPSFWDCFCFTEEIPIRNGTKS [AASDHPPT]”: the “solubility change mitosis (log2)” value with HeLa Kyoto [1] was -0.124. In addition, the figures for the thermal stability score in the data set on HeLa Kyoto [2] (setting [5]) and in the data set with HeLa Kyoto [2] (cell cycle stage: mitosis) were 0.145 and -0.453, respectively. Also, the “solubility in G1/S (log2)” value with HeLa Kyoto [3] came out at 0.0817. Also, the values for the melting temperature with HeLa Kyoto [4] (cell cycle stage: G1/S) and with HeLa Kyoto [4] (cell cycle stage: mitosis) were 52.3 °C and 52.4 °C, respectively.

The values above are taken from the supplement of paper PMC5998384.
